This passage reports TH2 response results from US12533403B2, “Peptide conjugated particles” (NORTHWESTERN UNIVERSITY, priority 2013, dated 2026).

The subject of the assay is allergic airway inflammation (murine allergy model). Description: Therapeutic treatment of OVA/Alum-induced allergic airway inflammation. The assay is classed as in vivo, mice. The settings on record: treated after exposure to OVA. As for the experimental part: To test the therapeutic effect of OVA encapsulated in PLG particles on airway inflammation, mice were treated intraperitoneally with OVA/Alum at a dose of 10 μg/mouse on day 0 and day 14. The mice were intravenously administered with OVA-PLG on days 28, and 42. Between days 56-58, the mice were treated three times with aerosolized OVA.
The animals were treated as described above except that on days 28 and 42, the mice were treated with either OVA encapsulated in PLG particles, or OVA coupled to PLG particles.
In the allergy model, coupled nanoparticles have a propensity to cause anaphylaxis and are not an effective therapy. […] Animals were exposed to OVA as an allergen, and were then treated with either a sham-PLG or TIMP particle, a PLG or TIMP particle with OVA, or no treatment.

B1: OVA-PLG surface coupled particles: PLGA particle with OVA coupled to the outside of the particle (conjugate, UniProt P01012 2-386, looked up)
Ovalbumin: GSIGAASMEFCFDVFKELKVHHANENIFYCPIAIMSALAMVYLGAKDSTRTQINKVVRFDKLPGFGDSIEAQCGTSVNVHSSLRDILNQITKPNDVYSFSLASRLYAEERYPILPEYLQCVKELYRGGLEPINFQTAADQARELINSWVESQTNGIIRNVLQPSSVDSQTAMVLVNAIVFKGLWEKAFKDEDTQAMPFRVTEQESKPVQMMYQIGLFRVASMASEKMKILELPFASGTMSMLVLLPDEVSGLEQLESIINFEKLTEWTSSNVMEERKIKVYLPRMKMEEKYNLTSVLMAMGITDVFSSSANLSGISSAESLKISQAVHAAHAEINEAGREVVGSAEAGVDAASVSEEFRADHPFLFCIKHIATNAVLFFGRCVSP
modifications: coupled to PLG particles
On to B1, for which the TH2 response result is listed as “fail to reduce the TH2 response”.
